Assay results taken from patent CN110577603A (BEIJING DONGFANG BIOTECH CO LTD, dated 2019).

T1: CD19 (on Raji lymphoma cells) (UniProt P15391 20-556, limits assumed)
T1 sequence (looked up): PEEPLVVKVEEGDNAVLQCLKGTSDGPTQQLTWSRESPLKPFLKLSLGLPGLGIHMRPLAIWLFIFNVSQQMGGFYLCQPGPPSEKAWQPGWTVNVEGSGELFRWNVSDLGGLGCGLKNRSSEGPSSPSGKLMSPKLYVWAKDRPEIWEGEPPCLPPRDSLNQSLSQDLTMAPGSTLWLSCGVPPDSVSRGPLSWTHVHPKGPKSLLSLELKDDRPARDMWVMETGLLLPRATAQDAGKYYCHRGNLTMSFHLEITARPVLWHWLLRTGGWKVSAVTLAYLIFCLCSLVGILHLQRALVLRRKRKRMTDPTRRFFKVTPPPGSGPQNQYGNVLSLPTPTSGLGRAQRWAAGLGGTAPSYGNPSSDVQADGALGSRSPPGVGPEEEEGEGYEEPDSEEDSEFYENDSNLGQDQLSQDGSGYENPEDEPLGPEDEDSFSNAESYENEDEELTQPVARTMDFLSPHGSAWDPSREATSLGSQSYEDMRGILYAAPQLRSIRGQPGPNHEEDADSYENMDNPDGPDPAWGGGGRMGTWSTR

B1: v5851双特异抗体 (专利CN105531374 A) (bispecific antibody)
chain 1: not shown
chain 2: not shown
chain 3: DIVMTQSPATLSLSPGERATLSCRSSKSLQNVNGNTYLYWFQQKPGQSPQLLIYRMSNLNSGVPDRFSGSGSGTEFTLTISSLEPEDFAVYYCMQHLEYPITFGAGTKLEIKRTVAAPSVFIFPPSDEQLKSGTASVVCLLNNFYPREAKVQWKVDNALQSGNSQESVTEQDSKDSTYSLSSTLTLSKADYEKHKVYACEVTHQGLSSPVTKSFNRGEC
B2: 抗CD3和抗CD19双特异性抗体 JY039 (bispecific antibody)
chain (part 1 of 2): not shown
chain (part 2 of 2): not shown
heavy: QVQLQQSGAELVRPGSSVKISCKASGYAFSSYWMNWVKQRPGQGLEWIGQIWPGDGDTNYNGKFKGKATLTADESSSTAYMQLSSLASEDSAVYFCARRETTTVGRYYYAMDYWGQGTTVTVSS
light: DIQLTQSPASLAVSLGQRATISCKASQSVDYDGDSYLNWYQQIPGQPPKLLIYDASNLVSGIPPRFSGSGSGTDFTLNIHPVEKVDAATYHCQQSTEDPWTFGGGTKLEIK
notes: Three chains: anti-CD3 single-chain unit (full light chain - linker - full heavy chain), anti-CD19 heavy chain, anti-CD19 light chain; constant regions preferably IgG4, linker preferably (GGGGS)6; also called 双特异抗体JY039; not shown: linker (GGGGX)n, X = Gly or Ser, n = 1-6; preferred X = Ser and n = 6; IgG4 heavy chain constant region (preferred; light chain constant region of the anti-CD19 unit; …)
B3: 抗CD19的单克隆抗体 (built from the anti-CD19 sequences of JY039) (antibody, V domains shown)
VH: B2 heavy
VL: B2 light
notes: also called AntiCD19McAb; 抗CD19单克隆抗体

Assays:
[1] = molecular target: T1, CD19 (on Raji lymphoma cells); test: cell-based or functional assay
CD3 (on Jurkat T cells) = molecular target: T2, CD3 (on Jurkat T cells) (UniProt P07766 23-207); test: flow cytometry on Jurkat cells (CD3 positive), Alexa488 anti-human IgG-Fc, MFI fitted
T2 construct: whole, on cells; Jurkat is a human cell line; also called CD3抗原; 细胞表面CD3

[2] = molecular target: T1, CD19 (on Raji lymphoma cells); test: flow cytometry on Raji cells (CD19 positive), Alexa488 anti-human IgG-Fc, MFI fitted

T2 sequence (P07766 23-207): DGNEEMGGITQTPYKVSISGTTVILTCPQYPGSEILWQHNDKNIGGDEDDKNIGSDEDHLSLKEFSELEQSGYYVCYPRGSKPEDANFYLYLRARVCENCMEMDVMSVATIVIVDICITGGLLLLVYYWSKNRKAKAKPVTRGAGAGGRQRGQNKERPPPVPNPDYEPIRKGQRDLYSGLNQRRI

Binder	EC50 of PBMC-mediated killing of Raji cells (LDH release) [1] [nM]	EC50 (CD3 (on Jurkat T cells)) [nM]	EC50 [2] [nM]
B1	0.03	59.8	2.49
B2	0.00126	–	1.02
B3	0.222	–	0.191
